Laboratory results: paper doi:10.1101/2021.12.16.472979v1

Substrate: N[C@@H](Cc1ccccc1)C(=O)O
Experiment: LC-MS decarboxylation assay, Michaelis-Menten fit
Type: biochemical, Enterococcus faecium
Details: 100 μM PLP, 200 mM sodium acetate pH 5.5, 100 nM enzyme, 37 °C

B1: Efm_TyrDC (Enterococcus faecium) (protein)
chain: MKDMDIKAVFIGDKAENGPVYKMLLNKMVDEHLGWRENYIPSDMPAISEGDKLTPDYLATRDHMIEVLDEVSQRLRAGSIPWHSAGRYWGQMNAETLMPALLAYNYAMLWNPNNVALESSMATSQMEAEVGQDFASLFNMADGWGHIAADGSIANLEGLWYARCIKSIPLAVKEVLPEKVKNMSEWALLNLSVEEILEMTESFTDEEMDEVKAASSRSGKNIQKLGKWLVPQTKHYSWMKALDICGVGLDQMVAIPVQEDYRMDINALEKTIRELADQKIPILGVVAVVGTTEEGQVDSVDKIIQLREKLKDEGIYFYLHVDAAYGGYARSLFLNEAGEFVPYASLAEFFEEHHVFHHYVTIDKEVYEGFRAISEADSVTIDPHKMGYVPYAAGGIVIKHKNMRNIISYFAPYVFEKSVKAPDMLGAYILEGSKAGATAAAVWTAHRVLPLNVTGYGQLIGASIEAAQRFREFLEQLHFTVKGKTIEVYPLNHPDFNMVNWVFKVQDCTDLNAINELNEKMFDRSSYMDGDVYGERFITSHTTFTQEDYGDSPIRFIERMGLSKEEWQKEQQITLLRAAIMTPYLNDDRIFNFYTKEIAKAMEKKLNEIIK
  Km: 8.5 mM
